# The nanobody polyreactivity screen of Harvey et al. (2022)
# Test: yeast display, Sf9 membrane polyspecificity reagent, FACS + sequencing; frameworks hold sequencing errors
# Procedure, shortened: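 Nanobodies from a synthetic yeast display library (Saccharomyces cerevisiae BJ5465), induced 36–48 hours with galactose, were stained 1 hour at 4 °C with 10% biotinylated, detergent-solubilized Sf9 membrane reagent, enriched on streptavidin microbeads, then FACS-sorted. Anti-HA (expression) and streptavidin (reagent binding) fluorescence set low and high (top ~1%) gates. Polyreactivity labels come from the gate of origin. Genes were colony-PCR amplified, MiSeq 2 × 250 sequenced and filtered by CDR length.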
row,Sequence,polyreactivity (PSR sort gate)
1,QVQLVESGGGLVQAGGSLRLSCAASGRTFSEYAMGWYRQAPGKERELVAAITENGGSTYYADSVKGRFTISRDIAKNTVYLQMNSLKPEDTAVYYCAAETWADWYSEFYWGQGTLVTVSS,high polyreactivity
2,QVQLVESGGGLVQAGGSLRLSCAASGRTFSFNGMGWYRQAPGKERELVAAISRRGTSTYYADSVKGRFTISRDNAKNTVYLQMNSLKPEDTAVYYCAARSTYTRREYDYWGQGTQVTVSS,high polyreactivity
3,QVQLVESGGGLVQAGGSLRLSCAASGRTFSFYAMGWYRQAPGKERELVAAISRGGGSTYYADSVKGRFTISRDNAKNTVYLQMNSLKPEDTAVYYCAAPFLYRRGYDYWGQGTQVTVSS,high polyreactivity
4,QVQLVESGGGLVQAGGSLRLSCAASGRTFSFYAMGWYRQAPGKERELVAGIDWDDGSTSYADSVKGRFTISRDNAKNTVYLQMNSLKPEDTEVYYCAADIGYDVYNDYDYWGQGTQVTVSS,low polyreactivity
5,QVQLVESGGGLVQAGGSLRLSCAASGRTFSGNALGWSTHAPGKERELVAAITSSGGSTYYADSVKGRFTISRENAKNTVYLQMNSLKPEDTAVYYCNTDPQGRTVVYGGDDYWGQGTQVTVSS,low polyreactivity
6,QVQLVESGGGLVQAGGSLRLSCAASGRTFSGYAMGWYRPAPGKERELVAAITSGGNTYYADSVKGRFTISRDNAKNTVYFQMNILKPEDTAVYYCATVYADESGIEGYSWGQGTQVTVSS,low polyreactivity
7,QVQLVESGGGLVQAGGSLRLSCAASGRTFSGYAMGWYRQAPGKERELVAAIDRGDGTNYADSVKGRFTISRDNAKNTVYLQMNSLKPEDTAVYYCAADDYWTPFGYWGQGTQVTVSS,low polyreactivity
8,QVQLVESGGGLVQAGGSLRLSCAASGRTFSGYAMGWYRQAPGKERELVAAITRRGGTTYYADSVKGRFTISRDNAKNTVYLQMNSLKPEDTAVYYCAAAKPRVISQNIIYDYWGQGTQVTVSS,high polyreactivity
9,QVQLVESGGGLVQAGGSLRLSCAASGRTFSGYAMGWYRQAPGKERELVATITWSSGSTYYADSVKGRFTISRDNAKNTVYLQMNSLKPEDTAVYYCNADQGSALRWSYDYWGQGTQVTVSS,low polyreactivity
10,QVQLVESGGGLVQAGGSLRLSCAASGRTFSGYVMGWYRQAPAKERELVAAIARNGGSRYYADSVKGRFTISRDKAKNTVYLQMNSLTPEDTAVYYCAADASCWRRHYYWGQGTQVTVSS,high polyreactivity
11,QVQLVESGGGLVQAGGSLRLSCAASGRTFSHNAMGWYRQAPGKERELVATISWNGGRTYYADSVKGRFTISRDNAKNTVYLQMNSLKPEDTAVYYCADDRIWVLYRTYFSKYGYWGQGTQVTVSS,high polyreactivity
12,QVQLVESGGGLVQAGGSLRLSCAASGRTFSHYAMGWYRQAPGKVRELVADISWNGGRTYYADSVKGRFTISRDNAKNTVYLQMNSLKPEDTAVYYCAKVRYWAWSYEYWGQGTQVTVSS,high polyreactivity
13,QVQLVESGGGLVQAGGSLRLSCAASGRTFSIYVMGWYRQAPGKERELVAAITSGGRTYYADSVKGRFTISRDNAKNTVYLQMNSLKPEDTAGYYCAAGYWRPGQYYSRYNYWGQGTQVTVSS,high polyreactivity
14,QVQLVESGGGLVQAGGSLRLSCAASGRTFSKYAMGWYRQAPGKERELVAAISKRGDSTYYADSVKGRFTISRDNAKNTVYLQMNSLKPEDTAVYYCARDDYRAYKSYYRYGYWGQGTQVTVSS,low polyreactivity
15,QVQLVESGGGLVQAGGSLRLSCAASGRTFSKYAMGWYRQAPGKERELVAAISSTGGSTYYADSVKGRFTISRDNAKNTVYLQMNSLIPEDTAVYYCATEVYWFHSRAYYYWGQGSQVTVSS,high polyreactivity
16,QVQLVESGGGLVQAGGSLRLSCAASGRTFSKYAMGWYRQAPGKERELVASITRSGGSTNYADSVKGRFTISRDNAKNTVYLQINSLKPEDTAVYYCRRKLGRTHASGFDYWGQGTQVTVSS,low polyreactivity
17,QVQLVESGGGLVQAGGSLRLSCAASGRTFSKYTMGWYRQAPGKERELVAAIDRSGGSTYYADSVKGRFSISRDNAKNTVYLQMNSLKPEDTAVYYCNTGLRYYSYRRDYWGQGTQVTVSS,high polyreactivity
18,QVQLVESGGGLVQAGGSLRLSCAASGRTFSLDAMGWYRQAPWKERELVASITDSTGGSTYYADSVKGRFTISRDNAKNTVYLQMNSLKPEDTAVYYCAAQDSQYSDYQWWFGYWGQGTQVTVSS,low polyreactivity
19,QVQLVESGGGLVQAGGSLRLSCAASGRTFSLNAMGWYRQAPGKEREFVAAISSTGGSTYYADSVKGRFTISRDNAKNTVYLQMNSLKPEDTAVYYCAKRSVYRTALGRYSVAYDYWGQGTQVTVSS,high polyreactivity
20,QVQLVESGGGLVQAGGSLRLSCAASGRTFSLYDMGWYRQAPGKERELVAAISYSGTRTYYADSVKGRFTISRDNAKNTVYLQMNCLKPEDTAVYYCARVYTVGTGRSWRLDYWGQGTQVTVSS,high polyreactivity
21,QVQLVESGGGLVQAGGSLRLSCAASGRTFSPNAMGWYRQAPGKEREFVAAITWSGGGTFYADSVKGRFTISRDNAKNTVYLQMNSLKPEDTAVYYCAARLDTYQTHSVITPAALYYWGQGTQVTVSS,low polyreactivity
22,QVQLVESGGGLVQAGGSLRLSCAASGRTFSPYAMGWYRQAPGKERELVAAIYNGGSTYYADSVKGRFTISRDNAKNTVYLQMNSLKPEDTAVYYCAAGRKSLYRIYSEYVEFDYWGQGTQVTVSS,low polyreactivity

row,Sequence,polyreactivity (PSR sort gate)
1,QVQLVESGGGLVQAGGSLRLSCAASGRTFSQYAMGWYRQAPGKERELVAPISWSGGSTYYADSVKGRFTISRDNAKNTVDLQMNSLKPEDTAVFYCAAVGKGSSRSSYPVLYDYWGQGTQVTVSS,low polyreactivity
2,QVQLVESGGGLVQAGGSLRLSCAASGRTFSRNAMGWYRHAPGKEWELVAAISRTGGSTYYADSVKGRFTISRDNAKKTVYLQMNSLKPEDTAVYYCAAGTWGWYAYGYWGLGTQVTVSS,high polyreactivity
3,QVQLVESGGGLVQAGGSLRLSCAASGRTFSRNAMGWYRQAPGKERELVAAISDGGGSTYYADSVKGRFTISRDNAKNPVYLQMNILKPEDTAVYYCAARVLDWRGDIHDSEYWGHGTQVTVSS,low polyreactivity
4,QVQLVESGGGLVQAGGSLRLSCAASGRTFSRNAMGWYRQAPGKERELVAAISQRGVSTYYADSVKGRFTISRDNAKNTVYLQMNSLKPEDTAVYYCNTRGTYRYDYWGQGTQVTVSS,low polyreactivity
5,QVQLVESGGGLVQAGGSLRLSCAASGRTFSRNAMGWYRQAPGKERELVAAISQSGGRTYYADSVKGRFTISRDNAKNTVYLQMNSLKPEDTAVYYCAAAGTRKALTEYDYWGQGTQVTLSS,high polyreactivity
6,QVQLVESGGGLVQAGGSLRLSCAASGRTFSRYAMGWYRPAPGKERELVAAISSSGGSTYYADSVKGRFTISRDHAKNTVYLQMNSLKPEDTAVYYCAKYFIRDNRYDYWGQGTQVTVSS,high polyreactivity
7,QVQLVESGGGLVQAGGSLRLSCAASGRTFSRYAMGWYRQAPGKERELVASIRSGGSTNYADSVKGRFTISRDNAKNTVYIQMNSLKPEDTAVYYCANVGRYWNPVYNSFYNFDYWGQGTQVTVSS,high polyreactivity
8,QVQLVESGGGLVQAGGSLRLSCAASGRTFSRYVMGWYRQAPGKERELVAAISRTGGRTYYADSVKGRFTISRDNAKNTVYLQMNSLKPEDTAVYYCNAGTVLISTYDYWGQGTQVSVSS,high polyreactivity
9,QVQLVESGGGLVQAGGSLRLSCAASGRTFSRYVMGWYRQAPGKERELVAGISQSGARTTYADSVKGRFTISRDNAKNTVYLQMNSLKPEDTAVYYCAAVGYGIRSYYSYDYWGQGTQVTVSS,high polyreactivity
10,QVQLVESGGGLVQAGGSLRLSCAASGRTFSSYAMGWYRPAPGKERELVAAITKRAGNTYYADSVKGRFTISRDNAKNTVYLQMNSLKPEDTAVYYCAAGWERFRNYNYWGQGTQVTVSS,high polyreactivity
11,QVQLVESGGGLVQAGGSLRLSCAASGRTFSSYAMGWYRQAPGKEREFVAAINKNGGSTFYADSVKGRFTISRDNAKNTVYFQMNSLKPEDTAVYYCNADTDWWNPYNYWGQGTQVTVST,low polyreactivity
12,QVQLVESGGGLVQAGGSLRLSCAASGRTFSSYAMGWYRQAPGKERELVAAINSGGSTNYADSVKGRFTISRDNAKNTVYLQMNSLKPEDTAVYYCNAVTFWGLGYDYWGQGTQVTVSS,low polyreactivity
13,QVQLVESGGGLVQAGGSLRLSCAASGRTFSSYAMGWYRQAPGKERELVAAISWSGGRTYYADSVKGRFTISRDNAKNTVYLQMNSLKPEDTAVYYCAAEGDKRKYWYLYDYWGQGTQVTVSS,high polyreactivity
14,QVQLVESGGGLVQAGGSLRLSCAASGRTFSSYAMGWYRQEPGKERELVARINSDGGRTYYADSVKGRFTISRDNAKNTVYLQMNSLKPEDTAVYYCAKRVVRGKVDYWGQGTQVTVSS,low polyreactivity
15,QVQLVESGGGLVQAGGSLRLSCAASGRTFSTNDMGWYRQAPGKERELVAAIDFDSDSTYYADSVKGRFTISRDNAKNTVYLQMNSMKPEDTAVYYCAAQYFSYGESYEYWGQGTQVTVSS,low polyreactivity
16,QVQLVESGGGLVQAGGSLRLSCAASGRTFSTYAMGWYRQAPGKERELVATIRGSGSSTYYADSVKGRFTISRDNAKNTVYLQMNSLKPEDTAVYYCAKDNNRWRYLRYGSWGQGTQVTVSS,high polyreactivity
17,QVQLVESGGGLVQAGGSLRLSCAASGRTFSTYAMGWYRQSPGKERELVAAITWRGASTYYADSVKGRFTISRDYAKNTVYLQMNSLKPEDTAVYYCATDAPDRTDSDSGFDAGYDYWGQGTQVTLSS,low polyreactivity
18,QVQLVESGGGLVQAGGSLRLSCAASGRTFSVNAMGWYRQAPGKERELVAAISSGGGTNYADSVKGRFTISRDNAKNNVYLQMNSLKPEDTAVYYCAARTFGYPSHRKEMEYWGQGTQVTVSS,low polyreactivity
19,QVQLVESGGGLVQAGGSLRLSCAASGRTFSVNAMGWYRQAPGKERELVAAISWDGGSTYYADSVKGRFTISRDNAKNTDYLQMNSLKPEDTAVYYCNKDLYYAYDYWRQGTQVTVSS,low polyreactivity
20,QVQLVESGGGLVQAGGSLRLSCAASGRTFSVNAMGWYRQAPGKERELVAAISWSTGSTYYADSVKGRFTISRDNAKNTVYLQMNSLKPEDTAVYYCAKLYEYRRSRYRTYGYWGQGTQVTVSS,high polyreactivity
21,QVQLVESGGGLVQAGGSLRLSCAASGRTFSVYAMGWYRQAPGKERELVAGITSGGSTNYADSVKGRFTISRDNAKNTVYLQMNSLKPEDTAVYYCAAEDDSSTPEFDYWGQGTQVTVSS,low polyreactivity
